These results are taken from the supplement of paper PMC10567573.

B1: SLC2A12 (parent)
chain: CLLGLGSLVLILSLSYTVLIVGRI
B2: PKD2L1 (parent)
chain: YSGGGYYLDLPGSRQGSAEALRAL
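Note: lentivirally expressed fusions sorted by FACS into six bins by GFP to DsRed ratio, PSI derived from sequencing read proportions per bin multiplied by bin number.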

One series covers variants of B1. Nature of the series: protein stability index of a GFP-peptide fusion (GPS, HEK-293T) (PSI 1-6); higher = more stable. The settings on record: c terminus: a fixed tail appended.
As to CLEGLGSLVLILSLSYTVLIVGRI [L3E], the protein stability index was found to be 2.54.
Consider CLKGLGSLVLILSLSYTVLIVGRI [L3K], for which the protein stability index came to 2.17.
The same measure, in the same setting: next, CLRGLGSLVLILSLSYTVLIVGRI [L3R]: 2.62; CLTGLGSLVLILSLSYTVLIVGRI [L3T]: 1.32; CLNGLGSLVLILSLSYTVLIVGRI [L3N]: 2.92.
As to MLLGLGSLVLILSLSYTVLIVGRI [C1M], the protein stability index is 2.46.
With NLLGLGSLVLILSLSYTVLIVGRI [C1N], the protein stability index amounted to 2.15.
Take ILLGLGSLVLILSLSYTVLIVGRI [C1I]: the protein stability index stood at 1.83.
Same read-out and setting: next, KLLGLGSLVLILSLSYTVLIVGRI [C1K]: 1.68; RLLGLGSLVLILSLSYTVLIVGRI [C1R]: 2.88; LLLGLGSLVLILSLSYTVLIVGRI [C1L]: 2.46.
Take WLLGLGSLVLILSLSYTVLIVGRI [C1W]: the protein stability index came to 1.27.
Same read-out and setting: next, CLLGEGSLVLILSLSYTVLIVGRI [L5E]: 2.46; CLLDLGSLVLILSLSYTVLIVGRI [G4D]: 3.12.
Regarding CLLFLGSLVLILSLSYTVLIVGRI [G4F], the protein stability index worked out at 3.56.
On the same count and under the same terms, then CLLLLGSLVLILSLSYTVLIVGRI [G4L], with 4.03; and CLLYLGSLVLILSLSYTVLIVGRI [G4Y], with 4.5; and CLLCLGSLVLILSLSYTVLIVGRI [G4C], with 2.73.
CKLGLGSLVLILSLSYTVLIVGRI [L2K]: the protein stability index was 1.76.
On the same count and under the same terms, then CQLGLGSLVLILSLSYTVLIVGRI [L2Q], with 1.55.
On to CCLGLGSLVLILSLSYTVLIVGRI [L2C], for which the protein stability index came out at 2.93.
On the same count and under the same terms, next, CHLGLGSLVLILSLSYTVLIVGRI [L2H]: 3.48; CMLGLGSLVLILSLSYTVLIVGRI [L2M]: 2.96.

The variants in another series derive from B2. The series is described as above. The note with it: c terminus: a fixed tail appended.
For the variant YSGGGYYLDLPGSRQGSARALRAL [E19R], the protein stability index is 2.16.
On the same count and under the same terms, next, YSGGGYYLDLPGSRQGSAPALRAL [E19P]: 2.03; YSGGGYYLDLPGSRQGSAMALRAL [E19M]: 2.09.
Still for that read-out and setting: then YSGGGYYLDLPGSRQGSATALRAL [E19T], with 1.77.
The same measure, in the same setting: then YSGGGYYLDLPGSRQGSAKALRAL [E19K], with 1.98.
As for YSGGGYYLDLPGSRQGSAYALRAL [E19Y], the protein stability index was determined as 2.23.
YSGGGYYLDLPGSRQGSACALRAL [E19C]: the protein stability index was 2.27.
Still for that read-out and setting: next, YSGGGYYLDLPGSRQGSAVALRAL [E19V]: 1.89; YSGGGYYLDLPGSRQGSAWALRAL [E19W]: 1.74; YSGGGYYLDLPGSRQGSAAALRAL [E19A]: 1.64.
The same measure, in the same setting: then YSGGGYYLDLPGSRQGSAIALRAL [E19I], with 1.45.
Consider YSGGGYYLDLPGSRQGSASALRAL [E19S], for which the protein stability index worked out at 1.49.
Same read-out and setting: then YSGGGYYLDLPGSRQGSADALRAL [E19D], with 1.81.
Still for that read-out and setting: next, YSGGGYYLDLPGSRQGSANALRAL [E19N]: 1.77.
The same measure, in the same setting: next, YSGGGYYLDLPGSRQGSAHALRAL [E19H]: 1.42; YSGGGYYLDLPGSRQGSALALRAL [E19L]: 1.84.
With YSGGGYYLDLPGSRQGSAGALRAL [E19G], the protein stability index was determined as 2.02.
Turning to YSGGGYYLDLPGSRQGSAQALRAL [E19Q], the protein stability index came to 1.63.
Consider YSGGGYYLDLPGSRQGSAFALRAL [E19F], for which the protein stability index came out at 2.33.
On the same count and under the same terms, then YSGGGYYLDLPGSRQGSAEAYRAL [L21Y], with 1.91.
The same measure, in the same setting: next, YSGGGYYLDLPGSRQGSAEAPRAL [L21P]: 2.23; YSGGGYYLDLPGSRQGSAEAGRAL [L21G]: 1.89; YSGGGYYLDLPGSRQGSAEASRAL [L21S]: 2.27.
The same measure, in the same setting: then YSGGGYYLDLPGSRQGSAEACRAL [L21C], with 1.41; and YSGGGYYLDLPGSRQGSAEAMRAL [L21M], with 3.01.
For the variant YSGGGYYLDLPGSRQGSAEADRAL [L21D], the protein stability index turned out to be 1.98.
Same read-out and setting: then YSGGGYYLDLPGSRQGSAEATRAL [L21T], with 1.86; and YSGGGYYLDLPGSRQGSAEAERAL [L21E], with 1.36; and YSGGGYYLDLPGSRQGSAEAVRAL [L21V], with 1.8.
The same measure, in the same setting: then YSGGGYYLDLPGSRQGSAEAKRAL [L21K], with 2.26; and YSGGGYYLDLPGSRQGSAEAFRAL [L21F], with 2.09; and YSGGGYYLDLPGSRQGSAEAQRAL [L21Q], with 1.87.
As to YSGGGYYLDLPGSRQGSAEAWRAL [L21W], the protein stability index amounted to 1.29.
Consider YSGGGYYLDLPGSRQGSAEAHRAL [L21H], for which the protein stability index was 2.05.
Still for that read-out and setting: next, YSGGGYYLDLPGSRQGSAEANRAL [L21N]: 1.99; YSGGGYYLDLPGSRQGSAEARRAL [L21R]: 1.25.
Turning to YSGGGYYLDLPGSRQGSAEAARAL [L21A], the protein stability index is 1.46.
In the case of YSGGGYYLDLPGSRQGSAEAIRAL [L21I], the protein stability index was 1.75.
Same read-out and setting: next, YSGGGYYLDLPGSRQGSAEYLRAL [A20Y]: 1.76.
Turning to YSGGGYYLDLPGSRQGSAEQLRAL [A20Q], the protein stability index came out at 1.66.
Still for that read-out and setting: then YSGGGYYLDLPGSRQGSAEKLRAL [A20K], with 1.74; and YSGGGYYLDLPGSRQGSAEMLRAL [A20M], with 1.81.
Turning to YSGGGYYLDLPGSRQGSAEGLRAL [A20G], the protein stability index is 1.66.
For YSGGGYYLDLPGSRQGSAEPLRAL [A20P], the protein stability index worked out at 2.62.
Consider YSGGGYYLDLPGSRQGSAELLRAL [A20L], for which the protein stability index came out at 1.72.
As for YSGGGYYLDLPGSRQGSAEDLRAL [A20D], the protein stability index stood at 1.86.
Still for that read-out and setting: next, YSGGGYYLDLPGSRQGSAEHLRAL [A20H]: 1.25; YSGGGYYLDLPGSRQGSAECLRAL [A20C]: 3.77; YSGGGYYLDLPGSRQGSAERLRAL [A20R]: 1.29.
Still for that read-out and setting: then YSGGGYYLDLPGSRQGSAESLRAL [A20S], with 2.2.
Same read-out and setting: then YSGGGYYLDLPGSRQGSAETLRAL [A20T], with 2.65.
On to YSGGGYYLDLPGSRQGSAEILRAL [A20I], for which the protein stability index turned out to be 1.37.
Still for that read-out and setting: next, YSGGGYYLDLPGSRQGSAENLRAL [A20N]: 2.02; YSGGGYYLDLPGSRQGSAEWLRAL [A20W]: 2.36.
Same read-out and setting: then YSGGGYYLDLPGSRQGSAEVLRAL [A20V], with 1.6; and YSGGGYYLDLPGSRQGSAEFLRAL [A20F], with 2.64; and YSGGGYYLDLPGSRQGSFEALRAL [A18F], with 1.57.
Still for that read-out and setting: then YSGGGYYLDLPGSRQGSPEALRAL [A18P], with 1.79.
With YSGGGYYLDLPGSRQGSVEALRAL [A18V], the protein stability index was 1.49.
Consider YSGGGYYLDLPGSRQGSIEALRAL [A18I], for which the protein stability index came to 1.55.
Still for that read-out and setting: then YSGGGYYLDLPGSRQGSLEALRAL [A18L], with 2.12; and YSGGGYYLDLPGSRQGSGEALRAL [A18G], with 1.81.
Still for that read-out and setting: then YSGGGYYLDLPGSRQGSMEALRAL [A18M], with 1.88.
Same read-out and setting: then YSGGGYYLDLPGSRQGSDEALRAL [A18D], with 2.65; and YSGGGYYLDLPGSRQGSTEALRAL [A18T], with 1.35.
Consider YSGGGYYLDLPGSRQGSEEALRAL [A18E], for which the protein stability index came to 1.71.
On the same count and under the same terms, next, YSGGGYYLDLPGSRQGSWEALRAL [A18W]: 1.61.
Same read-out and setting: next, YSGGGYYLDLPGSRQGSSEALRAL [A18S]: 1.5; YSGGGYYLDLPGSRQGSYEALRAL [A18Y]: 1.75.
Still for that read-out and setting: next, YSGGGYYLDLPGSRQGSHEALRAL [A18H]: 1.61; YSGGGYYLDLPGSRQGSKEALRAL [A18K]: 2.75.
